# Test system: T3 receptor (thyroid hormone receptor, GC2 pituitary cell nuclear extract) (Rattus norvegicus)
# Test: pulldown
# Conditions: equilibrium binding constant printed as 1.4x10^-9 M, ABCD assay, poly(dI-dC), 22 C, data not shown
substance,measurement,value
G209-146 rat GH enhancer probe,Kd,1.4 nM

# Reference: patent US5534418
